# Results: patent publication US20170343560A1
# Key:
# [1] = target: human Fcgamma receptor I (human) (UniProt P12314); experiment: SPR BIAcore T100, Bi-huFcyRI on SA-CAP chip, antibody 10 ug/mL injected 60 s, reference-subtracted response after injection
# [2] = target: bispecific effector function silent anti-ANG2/VEGF antibody; experiment: bridging ELISA (Ex. 2), VEGF bridges Bi-drug and Dig-drug; VEGF 25 ng/mL in cynomolgus pool plasma
# [3] = target: bispecific effector function silent anti-ANG2/VEGF antibody; experiment: bridging ELISA (Ex. 2), VEGF bridges Bi-drug and Dig-drug; VEGF 50 ng/mL in cynomolgus pool plasma
# [4] = target: bispecific effector function silent anti-ANG2/VEGF antibody; experiment: bridging ELISA (Ex. 2), VEGF bridges Bi-drug and Dig-drug; VEGF 100 ng/mL in cynomolgus pool plasma
# [5] = target: bispecific effector function silent anti-ANG2/VEGF antibody; experiment: bridging ELISA (Ex. 2), VEGF bridges Bi-drug and Dig-drug; VEGF 1.56 ng/mL in cynomolgus pool plasma
# [6] = target: bispecific effector function silent anti-ANG2/VEGF antibody; experiment: bridging ELISA (Ex. 2), VEGF bridges Bi-drug and Dig-drug; VEGF 12.5 ng/mL in cynomolgus pool plasma
# [7] = target: bispecific effector function silent anti-ANG2/VEGF antibody; experiment: bridging ELISA (Ex. 2), VEGF bridges Bi-drug and Dig-drug; VEGF 3.13 ng/mL in cynomolgus pool plasma
# [8] = target: bispecific effector function silent anti-ANG2/VEGF antibody; experiment: bridging ELISA (Ex. 2), VEGF bridges Bi-drug and Dig-drug; VEGF 6.25 ng/mL in cynomolgus pool plasma
# [9] = target: bispecific effector function silent anti-ANG2/VEGF antibody; experiment: bridging ELISA (Ex. 2), VEGF bridges Bi-drug and Dig-drug; VEGF 0.391 ng/mL in cynomolgus pool plasma
# [10] = target: bispecific effector function silent anti-ANG2/VEGF antibody; experiment: bridging ELISA (Ex. 2), VEGF bridges Bi-drug and Dig-drug; VEGF 0.781 ng/mL in cynomolgus pool plasma
# [11] = target: bispecific effector function silent anti-ANG2/VEGF antibody; experiment: bridging ELISA (Ex. 2), VEGF bridges Bi-drug and Dig-drug; VEGF 0.195 ng/mL in cynomolgus pool plasma; cut off 0.05
# [12] = target: bispecific effector function silent anti-ANG2/VEGF antibody; experiment: bridging ELISA (Ex. 2), VEGF bridges Bi-drug and Dig-drug; VEGF 0.0489 ng/mL in cynomolgus pool plasma; cut off 0.05
# [13] = target: bispecific effector function silent anti-ANG2/VEGF antibody; experiment: bridging ELISA (Ex. 2), ANG2 bridges Bi-drug and Dig-drug; ANG2 25 ng/mL in cynomolgus pool plasma; cut off 0.05
# [14] = target: bispecific effector function silent anti-ANG2/VEGF antibody; experiment: bridging ELISA (Ex. 2), ANG2 bridges Bi-drug and Dig-drug; ANG2 50 ng/mL in cynomolgus pool plasma; cut off 0.05
# [15] = target: bispecific effector function silent anti-ANG2/VEGF antibody; experiment: bridging ELISA (Ex. 2), ANG2 bridges Bi-drug and Dig-drug; ANG2 100 ng/mL in cynomolgus pool plasma; cut off 0.05
# [16] = target: bispecific effector function silent anti-ANG2/VEGF antibody; experiment: bridging ELISA (Ex. 2), ANG2 bridges Bi-drug and Dig-drug; ANG2 1.56 ng/mL in cynomolgus pool plasma; cut off 0.05
# [17] = target: bispecific effector function silent anti-ANG2/VEGF antibody; experiment: bridging ELISA (Ex. 2), ANG2 bridges Bi-drug and Dig-drug; ANG2 12.5 ng/mL in cynomolgus pool plasma; cut off 0.05
# [18] = target: bispecific effector function silent anti-ANG2/VEGF antibody; experiment: bridging ELISA (Ex. 2), ANG2 bridges Bi-drug and Dig-drug; ANG2 3.13 ng/mL in cynomolgus pool plasma; cut off 0.05
# [19] = target: bispecific effector function silent anti-ANG2/VEGF antibody; experiment: bridging ELISA (Ex. 2), ANG2 bridges Bi-drug and Dig-drug; ANG2 6.25 ng/mL in cynomolgus pool plasma; cut off 0.05
# [20] = target: bispecific effector function silent anti-ANG2/VEGF antibody; experiment: bridging ELISA (Ex. 2), ANG2 bridges Bi-drug and Dig-drug; ANG2 0.195 ng/mL in cynomolgus pool plasma; cut off 0.05
# [21] = target: bispecific effector function silent anti-ANG2/VEGF antibody; experiment: bridging ELISA (Ex. 2), ANG2 bridges Bi-drug and Dig-drug; ANG2 0.391 ng/mL in cynomolgus pool plasma; cut off 0.05
# [22] = target: bispecific effector function silent anti-ANG2/VEGF antibody; experiment: bridging ELISA (Ex. 2), ANG2 bridges Bi-drug and Dig-drug; ANG2 0.781 ng/mL in cynomolgus pool plasma; cut off 0.05
# [23] = target: bispecific effector function silent anti-ANG2/VEGF antibody; experiment: bridging ELISA (Ex. 2), ANG2 bridges Bi-drug and Dig-drug; ANG2 0.0489 ng/mL in cynomolgus pool plasma; cut off 0.05
# [24] = target: bispecific effector function silent anti-ANG2/VEGF antibody; experiment: bridging ELISA (Ex. 2), ANG2 bridges Bi-drug and Dig-drug; ANG2 0.0977 ng/mL in cynomolgus pool plasma; cut off 0.05
# UniProt P12314, sequence (P12314 16-288 limits assumed): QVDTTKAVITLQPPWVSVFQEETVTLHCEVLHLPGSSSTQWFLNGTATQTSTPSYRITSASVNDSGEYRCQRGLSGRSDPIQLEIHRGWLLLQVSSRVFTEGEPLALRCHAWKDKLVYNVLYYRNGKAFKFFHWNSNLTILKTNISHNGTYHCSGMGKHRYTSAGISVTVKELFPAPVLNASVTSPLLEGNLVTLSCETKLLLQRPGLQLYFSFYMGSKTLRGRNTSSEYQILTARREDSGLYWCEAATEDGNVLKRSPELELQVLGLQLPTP
# ANG2, sequence (O15123 19-496 limits assumed): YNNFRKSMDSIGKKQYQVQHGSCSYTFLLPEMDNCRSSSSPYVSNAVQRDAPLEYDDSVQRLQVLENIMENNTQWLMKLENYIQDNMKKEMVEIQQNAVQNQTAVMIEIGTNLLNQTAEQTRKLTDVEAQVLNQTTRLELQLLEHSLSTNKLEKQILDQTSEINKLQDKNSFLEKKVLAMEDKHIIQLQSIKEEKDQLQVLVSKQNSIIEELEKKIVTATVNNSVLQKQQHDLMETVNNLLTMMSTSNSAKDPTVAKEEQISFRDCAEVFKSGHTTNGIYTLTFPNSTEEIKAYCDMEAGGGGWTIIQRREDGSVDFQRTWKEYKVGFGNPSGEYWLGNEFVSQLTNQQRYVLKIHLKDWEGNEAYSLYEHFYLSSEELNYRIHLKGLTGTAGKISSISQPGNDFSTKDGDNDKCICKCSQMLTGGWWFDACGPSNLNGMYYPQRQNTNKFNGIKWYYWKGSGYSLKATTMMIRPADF
# VEGF, sequence (P15692 other isoform, or with tags, fused parts or gaps limits assumed): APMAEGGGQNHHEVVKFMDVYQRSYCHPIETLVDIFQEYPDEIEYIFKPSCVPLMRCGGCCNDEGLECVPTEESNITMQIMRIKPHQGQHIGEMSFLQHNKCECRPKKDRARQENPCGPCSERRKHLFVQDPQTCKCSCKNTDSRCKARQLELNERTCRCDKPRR
substance,measurement,setting,value
human IgG1 with P329G L243A L235A mutations (antibody),signal (RU),[1],1.5 RU
VEGF (from UniProt P15692 27-191) (ligand),OD 405 nm,[2],1.69 OD 405 nm
same,OD 405 nm,[3],2.34 OD 405 nm
same,OD 405 nm,[4],2.83 OD 405 nm
same,OD 405 nm,[5],0.138 OD 405 nm
same,OD 405 nm,[6],0.921 OD 405 nm
same,OD 405 nm,[7],0.274 OD 405 nm
same,OD 405 nm,[8],0.51 OD 405 nm
same,OD 405 nm,[9],0.058 OD 405 nm
same,OD 405 nm,[10],0.083 OD 405 nm
same,OD 405 nm,[11],0.039 OD 405 nm
same,OD 405 nm,[12],0.025 OD 405 nm
human IgG4 (antibody),signal (RU),[1],20.2 RU
human IgG1 P329G L234A L235A I253A H310A H434A mutations (antibody),signal (RU),[1],1.8 RU
mouse IgG1 (antibody),signal (RU),[1],3 RU
mouse IgG2a (antibody),signal (RU),[1],31.1 RU
human IgG1 with L234A L235A mutations (antibody),signal (RU),[1],4 RU
human IgM (from UniProt P01871 1-453) (antibody),signal (RU),[1],5.2 RU
ANG2 (from UniProt O15123 19-496) (ligand),OD 405 nm,[13],0.052 OD 405 nm
same,OD 405 nm,[14],0.076 OD 405 nm
same,OD 405 nm,[15],0.14 OD 405 nm
same,OD 405 nm,[16],0.024 OD 405 nm
same,OD 405 nm,[17],0.038 OD 405 nm
same,OD 405 nm,[18],0.028 OD 405 nm
same,OD 405 nm,[19],0.031 OD 405 nm
same,OD 405 nm,[20],0.024 OD 405 nm
same,OD 405 nm,[21],0.022 OD 405 nm
same,OD 405 nm,[22],0.024 OD 405 nm
same,OD 405 nm,[23],0.022 OD 405 nm
same,OD 405 nm,[24],0.022 OD 405 nm
human IgG4 with S228P L235E mutations (antibody),signal (RU),[1],2.6 RU
human IgG1 (antibody),signal (RU),[1],139 RU
